Test results from EP4491631A1.
Changes are numbered by the printed parent chain.

B1: z2-XVT458 (antibody, IgG1, V domains shown)
VH: QVQLVQSGAEVKKPGASVKVSCKASGYTFTNFYIHWVRQAPGQGLEWMGSIYPNYGDTAYNQKFKDRVTMTVDTSTSTAYMELRSLRSDDTAVYYCARGYSYAMDYWGQGTTVTVSS
VL: DIQMTQSPSSVSASVGDRVTITCSASQGISGDLNWYQQKPGKAPKLLIYHTSSLHSGVPSRFSGSGSGTDFTLTISSLQPEDFATYYCQYYSKDLLTFGGGTKLEIK
B2: XVT458-z2-m1 (antibody, V domains shown)
VH: B1 VH with D57F
VL: B1 VL with S30W, S53Q, G57D, Y90G
B3: XVT458-z2-m3 (antibody, V domains shown)
VH: B1 VH with S50R, D57I
VL: B1 VL with S53Q, L54R, G57D, Y90G
B4: XVT458-z2-m5 (antibody, V domains shown)
VH: B1 VH with S50R, D57I
VL: B1 VL with S30Y, L54R, Y90A
B5: XVT458-z2-m6 (antibody, V domains shown)
VH: B1 VH with D57I
VL: B1 VL with S53Q, G57D, Y90G
B6: XVT458-z2-m4 (antibody, V domains shown)
VH: B1 VH with S50R, D57I
VL: B1 VL with L54R, Y90G
B7: XVT458-z2-m2 (antibody, V domains shown)
VH: B1 VH with S50R, D57F
VL: B1 VL with S30Y, Y90A

The binders below were run against cynomolgus PD-1 expressed on cells (cynomolgus monkey) (UniProt B0LAJ3) (assay: flow cytometry, CHO-S Cyno-PD-1).
cynomolgus PD-1 expressed on cells (cynomolgus monkey), sequence (B0LAJ3 entry or part of it limits assumed): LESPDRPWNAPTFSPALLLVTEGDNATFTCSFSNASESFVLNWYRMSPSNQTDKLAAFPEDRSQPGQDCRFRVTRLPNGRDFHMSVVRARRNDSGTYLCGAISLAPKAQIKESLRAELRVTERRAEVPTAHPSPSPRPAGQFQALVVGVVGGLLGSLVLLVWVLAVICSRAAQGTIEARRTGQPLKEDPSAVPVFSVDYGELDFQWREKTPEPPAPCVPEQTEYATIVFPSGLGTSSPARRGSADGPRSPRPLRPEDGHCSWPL

Binder	Max MFI [MFI]
B1	109
B2	70
B3	124
B4	335
B5	59
B6	258
B7	367
